# According to article PMC9202080, “Evolution of homo‐oligomerization of methionine S‐adenosyltransferases is replete with structure–function constrains” (Protein Science : A Publication of the Protein Society, 2022):
# T1: NgMAT (Neisseria gonorrhoeae, UniProt Q5FAC0)
# T1 construct: gene metK; full length, C-terminal His6 tag, codon-optimised synthetic gene, E. coli BL21(DE3), dimer without substrates, functional homotetramer with substrates
# T1 sequence (Q5FAC0 1-389): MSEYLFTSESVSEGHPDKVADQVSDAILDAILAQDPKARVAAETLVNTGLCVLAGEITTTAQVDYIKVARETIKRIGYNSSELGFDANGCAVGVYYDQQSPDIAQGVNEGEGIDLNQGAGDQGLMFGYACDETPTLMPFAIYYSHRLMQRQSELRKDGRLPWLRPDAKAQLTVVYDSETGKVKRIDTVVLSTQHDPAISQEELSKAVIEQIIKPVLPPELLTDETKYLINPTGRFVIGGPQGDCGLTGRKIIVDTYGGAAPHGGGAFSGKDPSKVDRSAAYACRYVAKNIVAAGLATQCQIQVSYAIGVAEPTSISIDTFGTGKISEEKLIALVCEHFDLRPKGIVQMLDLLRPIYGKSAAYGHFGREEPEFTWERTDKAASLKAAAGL
# Assays:
# NgMAT [1] = target: T1, NgMAT; experiment: size exclusion chromatography, ligand-induced tetramerization; format: binding; settings: 10 uM NgMAT; AMP-PNP alone or with methionine
# NgMAT [2] = target: T1, NgMAT; experiment: SAM formation, size exclusion chromatography; format: biochemical
# [3] = target: the molecule itself; experiment: SEC; Superdex 200 Increase, 25 mM TrisHCl, 150 mM KCl, 1 mM DTT; protein diluted from a 300 μM stock, pre-incubated diluted for an hour, then injected; EcMAT 1.56–100 μM, NgMAT 10–100 μM; no substrates
# [4] = target: the molecule itself; experiment: SEC; diluted from ~300 μM stocks to 10 μM, incubated 100 hr at 25°C in 50% glycerol, sampled by SEC until equilibrium (~75 hr); Kd calculated from the tetrameric fraction; tetramer to dimers
# [5] = target: the molecule itself; experiment: SEC; 10 μM NgMAT pre-incubated with saturated methionine alone or ATP alone
# [6] = target: the molecule itself; experiment: SEC; 10 μM NgMAT pre-incubated with saturated methionine and ATP together
# [7] = target: the molecule itself; experiment: crystal structure; LpMAT + 5 mM AMPPNP + 5 mM methionine, 2.82 Å, space group P1, eight copies in the asymmetric unit
# [8] = target: the molecule itself; experiment: crystal structure; EcMATmut + 5 mM AMPPNP + 5 mM methionine, 1.6 Å, space group P42212, one copy in the asymmetric unit
molecule,measurement,setting,value
Nc1ncnc2c1ncn2[C@@H]1O[C@H](COP(=O)(O)OP(=O)(O)NP(=O)(O)O)[C@@H](O)[C@H]1O [AMP-PNP],"size exclusion chromatography, ligand-induced tetramerization",NgMAT [1],We found that AMP‐PNP increased the tetrameric species substantially
CSCC[C@H](N)C(=O)O [methionine],"SAM formation, size exclusion chromatography",NgMAT [2]; 10 uM NgMAT with ATP,in the presence of both substrates we saw a marked shift of NgMAT toward tetramerization
Nc1ncnc2c1ncn2[C@@H]1O[C@H](COP(=O)(O)OP(=O)(O)OP(=O)(O)O)[C@@H](O)[C@H]1O [ATP],"SAM formation, size exclusion chromatography",NgMAT [2]; 10 uM NgMAT with methionine,in the presence of both substrates we saw a marked shift of NgMAT toward tetramerization
"Escherichia coli methionine S-adenosyltransferase (enzyme, methionine S-adenosyltransferase (MAT) of Escherichia coli; Homotetramer (dimer of dimers) in solution; the self-association rows are of this chain with itself; also called EcMAT; E. coli MAT; source: E. coli BL21 (DE3), pET24a, purified (Ni-NTA)) AKHLFTSESVSEGHPDKIADQISDAVLDAILEQDPKARVACETYVKTGMVLVGGEITTSAWVDIEEITRNTVREIGYVHSDMGFDANSCAVLSAIGKQSPDINQGVDRADPLEQGAGDQGLMFGYATNETDVLMPAPITYAHRLVQRQAEVRKNGTLPWLRPDAKSQVTFQYDDGKIVGIDAVVLSTQHSEEIDQKSLQEAVMEEIIKPILPAEWLTSATKFFINPTGRFVIGGPMGDCGLTGRKIIVDTYGGMARHGGGAFSGKDPSKVDRSAAYAARYVAKNIVAAGLADRCEIQVSYAIGVAEPTSIMVETFGTEKVPSEQLTLLVREFFDLRPYGLIQMLDLLHPIYKETAAYGHFGREHFPWEKTDKAQLLRDAAGLK",stoichiometry N,[3],4
same,Kd,[4],8.2 µM
"Neisseria gonorrhoeae methionine S-adenosyltransferase (enzyme, UniProt B4RQ36 1-389, looked up, methionine S-adenosyltransferase of Neisseria gonorrhoeae; also called NgMAT; N. gonorrhoeae MAT; source: E. coli BL21 (DE3), pET24a, purified (Ni-NTA)) MSEYLFTSESVSEGHPDKVADQVSDAILDAILAQDPKARVAAETLVNTGLCVLAGEITTTAQVDYIKVARETIKRIGYNSSELGFDANGCAVGVYYDQQSPDIAQGVNEGEGIDLNQGAGDQGLMFGYACDETPTLMPFAIYYSHRLMQRQSELRKDGRLPWLRPDAKAQLTVVYDSETGKVKRIDTVVLSTQHDPAISHEELSKAVIEQIIKPVLPPELLTDETKYLINPTGRFVIGGPQGDCGLTGRKIIVDTYGGAAPHGGGAFSGKDPSKVDRSAAYACRYVAKNIVAAGLATQCQIQVSYAIGVAEPTSISIDTFGTGKISEEKLIALVCEHFDLRPKGIVQMLDLLRPIYGKSAAYGHFGREEPEFTWERTDKAASLKAAAGL",stoichiometry N,[5],2
same,stoichiometry N,[6],4
"Lactiplantibacillus plantarum methionine S-adenosyltransferase (enzyme, UniProt Q88XB8 1-395, looked up, also called LpMAT; MAT from Lactiplantibacillus planatrum; source: E. coli BL21 (DE3), pET24a, purified (Ni-NTA)) MSERHLFTSESVSEGHPDKIADQISDAILDAMLAQDPQARVAVETSVTTGLVLVFGEVSTKAYVDIQKVVRDTIKSIGYVDGQYGFDGDNCAVLVSLDEQSPDIAQGVDDSLETRSGDADPLDQIGAGDQGMMFGYAINETPELMPLPIALSHRLMRKIAALRKDGTIKWLRPDAKAQVTVEYDEDNQPKRIDTVVLSTQHDPDVDLDTIRQTVIDQVIKAVLPADLLDDQTKYLVNPTGRFVIGGPQGDAGLTGRKVIVDTYGGFAHHGGGAFSGKDATKVDRSASYAARYIAKNVVAAGLADQVEVQLAYAIGVAEPVSIAVDTAGTGKVSDEALINAIRENFDLRPAGIIKMLDLQRPIYRQTAAYGHFGRTDIDLPWEHTDKVDALKAVFK",stoichiometry N,[7],2
"Escherichia coli methionine S-adenosyltransferase E67K K98Q (enzyme, methionine S-adenosyltransferase (MAT) of Escherichia coli with the salt-bridge residues of the small interface swapped to those of NgMAT; made from the EcMAT construct by site directed mutagenesis; also called EcMATmut; E. coli E67K K98Q; source: E. coli BL21 (DE3), pET24a, purified (Ni-NTA)) MAKHLFTSESVSEGHPDKIADQISDAVLDAILEQDPKARVACETYVKTGMVLVGGEITTSAWVDIEKITRNTVREIGYVHSDMGFDANSCAVLSAIGQQSPDINQGVDRADPLEQGAGDQGLMFGYATNETDVLMPAPITYAHRLVQRQAEVRKNGTLPWLRPDAKSQVTFQYDDGKIVGIDAVVLSTQHSEEIDQKSLQEAVMEEIIKPILPAEWLTSATKFFINPTGRFVIGGPMGDCGLTGRKIIVDTYGGMARHGGGAFSGKDPSKVDRSAAYAARYVAKNIVAAGLADRCEIQVSYAIGVAEPTSIMVETFGTEKVPSEQLTLLVREFFDLRPYGLIQMLDLLHPIYKETAAYGHFGREHFPWEKTDKAQLLRDAAGLK",stoichiometry N,[8],4
same,Kd,[4],90.3 µM
